Reference: paper PMC3576267

Legend:
[1] = test system: GST-UtroUp (six zinc finger artificial transcription factor) (synthetic construct); assay: EMSA; conditions: 50 uM ZnCl2; 1-90 nM protein; mean of five experiments; EMSA: 20 mM Hepes pH 7.5, 0.5 mM DTT, 100 mM NaCl, 50 uM ZnCl2, 50 ug/ml BSA, 100 ng poly(dI-dC), 0.05% NP40, 5% glycerol; temperature not stated
[2] = test system: GST-Jazz (three zinc finger artificial transcription factor) (synthetic construct); assay: EMSA; conditions: 50 uM ZnCl2; 5-96 nM protein; at 12 nM shift weaker than GST-UtroUp (Fig. 2C); EMSA: 20 mM Hepes pH 7.5, 0.5 mM DTT, 100 mM NaCl, 50 uM ZnCl2, 50 ug/ml BSA, 100 ng poly(dI-dC), 0.05% NP40, 5% glycerol; temperature not stated

Sequence: ATTAAGCCGGGCTGCTGCGGGCTGGGAGTATGATCC (double strand) [WT UtroUp (UtroUp-Jazz) DNA target]
- Kd [1]: 0.0035 µM
- Kd [2]: 0.032 µM
